Laboratory results published in the Immune Epitope Database (IEDB).

Key:
[1] = target: HLA-B*44:02; experiment: IEDB peptide-MHC binding, purified MHC/competitive/radioactivity; filed as Kd, often an IC50 or EC50 that approximates it; ≥ and ≤ were set here for values at or beyond the usual limits of such assays
[2] = target: HLA-B*40:01; experiment: as above
[3] = target: HLA-B*40:02; experiment: as above
[4] = target: HLA-B*45:01; experiment: as above
[5] = target: HLA-B*18:01; experiment: as above
[6] = target: HLA-B*44:03; experiment: as above
[7] = target: HLA-A*03:01; experiment: IEDB peptide-MHC binding, purified MHC/competitive/fluorescence; filed as Kd, often an IC50 or EC50 that approximates it; ≥ and ≤ were set here for values at or beyond the usual limits of such assays
[8] = target: HLA-A*24:02; experiment: IEDB peptide-MHC binding, purified MHC/competitive/fluorescence; ≥ and ≤ were set here for values at or beyond the usual limits of such assays
[9] = target: HLA-A*02:01; experiment: as above
[10] = target: HLA-B*44:02; experiment: IEDB peptide-MHC binding, purified MHC/direct/fluorescence; filed as Kd, often an IC50 or EC50 that approximates it; ≥ and ≤ were set here for values at or beyond the usual limits of such assays; conditions: source organism: Coxiella burnetii
[11] = target: HLA-A*01:01; experiment: as above; conditions: source organism: Coxiella burnetii
[12] = target: HLA-A*69:01; experiment: as above; conditions: source organism: Coxiella burnetii
[13] = target: HLA-B*40:01; experiment: as above; conditions: source organism: Coxiella burnetii
[14] = target: HLA-B*08:01; experiment: as above; conditions: source organism: Coxiella burnetii
[15] = target: HLA-A*11:01; experiment: as above; conditions: source organism: Coxiella burnetii
[16] = target: HLA-A*31:01; experiment: as above; conditions: source organism: Coxiella burnetii
[17] = target: HLA-A*03:01; experiment: as above; conditions: source organism: Coxiella burnetii
[18] = target: HLA-B*58:01; experiment: as above; conditions: source organism: Coxiella burnetii
[19] = target: HLA-B*15:01; experiment: as above; conditions: source organism: Coxiella burnetii
[20] = target: HLA-B*27:05; experiment: as above; conditions: source organism: Coxiella burnetii
[21] = target: HLA-A*02:01; experiment: as above; conditions: source organism: Coxiella burnetii
[22] = target: HLA-B*07:02; experiment: as above; conditions: source organism: Coxiella burnetii
[23] = target: HLA-A*26:01; experiment: as above; conditions: source organism: Coxiella burnetii
[24] = target: HLA-A*68:02; experiment: IEDB peptide-MHC binding, purified MHC/competitive/radioactivity; filed as Kd, often an IC50 or EC50 that approximates it; ≥ and ≤ were set here for values at or beyond the usual limits of such assays; conditions: source organism: Dengue virus 4 Dominica/814669/1981
[25] = source organism: Lymphocytic choriomeningitis virus (strain Armstrong)
[26] = source organism: Lymphocytic choriomeningitis virus (strain WE)
[27] = source organism: Zaire ebolavirus
[28] = source organism: Mammarenavirus brazilense
[29] = source organism: Sudan ebolavirus
[30] = source organism: SARS coronavirus Tor2
[31] = source organism: Lassa virus Josiah
[32] = source organism: Mammarenavirus whitewaterense

Sequence ADNMITEML has a Kd [1, 25] of 17.7 µM, a Kd [2, 25] of 19.5 µM and a Kd [3, 25] of 1.41 µM. The Kd [4, 25] was at least 77.7 µM, the Kd [5, 25] was at least 77.5 µM and the Kd [6, 25] was 17.8 µM.
Work on KEPVESCPLM yielded a Kd [1, 26] of 14.3 µM, a Kd [2, 26] of 11.8 µM and a Kd [3, 26] of 0.208 µM. The Kd [4, 26] was at least 70 µM, the Kd [5, 26] was at least 34.4 µM and the Kd [6, 26] was at least 40.8 µM.
RLSVKTFVK showed a Kd ([7]; source organism: Francisella tularensis subsp. tularensis FSC198) of 0.0253 µM.
In the case of VYKLDISEA, the IC50 [8, 27] is reported as 44 µM.
With YEQQTVNST the Kd [1, 28] was at least 34.1 µM, the Kd [2, 28] was at least 54.2 µM and the Kd [3, 28] was 0.0783 µM. For the same sequence, the Kd [4, 28] was 1.21 µM, the Kd [5, 28] was 1.13 µM and the Kd [6, 28] was at least 78.1 µM.
TTGRLIWTL gave an IC50 [8, 29] of 0.309 µM and an IC50 [9, 29] of 2 µM.
With HEFVDEFYA the Kd [1, 30] was 18.6 µM, the Kd [2, 30] was 1.19 µM and the Kd [3, 30] was 0.055 µM. For the same sequence, the Kd [4, 30] was 0.157 µM, the Kd [5, 30] was 3.01 µM and the Kd [6, 30] was 5.58 µM.
YHFDPVHHL showed a Kd [10] of at least 20 µM, a Kd [11] of at least 20 µM and a Kd [12] of at least 20 µM. The Kd [13] was at least 20 µM, the Kd [14] was at least 20 µM and the Kd [15] was at least 20 µM. For the same sequence, the Kd [16] was at least 20 µM, the Kd [17] was at least 20 µM and the Kd [18] was at least 20 µM. The Kd [19] was at least 20 µM, the Kd [20] was at least 20 µM and the Kd [21] was at least 20 µM. For the same sequence, the Kd [22] was at least 20 µM and the Kd [23] was at least 20 µM.
In the case of DEWSVATFYL, the Kd [1, 30] is reported as 0.939 µM, the Kd [2, 30] is reported as 1.49 µM and the Kd [3, 30] is reported as 0.119 µM. The Kd [4, 30] was 1.01 µM, the Kd [5, 30] was 0.0771 µM and the Kd [6, 30] was 0.356 µM.
In the case of EEAARCMRSL, the Kd [1, 30] is reported as 0.164 µM, the Kd [2, 30] is reported as 0.802 µM and the Kd [3, 30] is reported as 0.184 µM. The Kd [4, 30] was 0.085 µM, the Kd [5, 30] was 6.89 µM and the Kd [6, 30] was 0.406 µM.
With PEIRRWIIF the Kd [10] was at least 20 µM, the Kd [11] was at least 20 µM and the Kd [12] was at least 20 µM. For the same sequence, the Kd [13] was 5.64 µM, the Kd [14] was at least 20 µM and the Kd [15] was at least 20 µM. The Kd [16] was at least 20 µM, the Kd [17] was at least 20 µM and the Kd [18] was at least 20 µM. The Kd [19] was at least 20 µM, the Kd [20] was at least 20 µM and the Kd [21] was at least 20 µM. It also gave a Kd [22] of at least 20 µM and a Kd [23] of at least 20 µM.
EGIYTEGLM showed an IC50 [8, 29] of 15 µM and an IC50 [9, 29] of 33.4 µM.
Sequence GVSWMIRILI has a Kd [24] of 0.197 µM.
ETMEVVQQTR gave a Kd ([7]; source organism: Influenza A virus (A/Fort Monmouth/1/1947-mouse adapted(H1N1))) of at least 20 µM.
RLSVKTFVH showed a Kd ([7]; source organism: Coxiella burnetii RSA 493) of 0.0276 µM.
REPTDLKQF gave a Kd [1, 31] of 1.51 µM, a Kd [2, 31] of 2.88 µM and a Kd [3, 31] of 1 µM. The Kd [4, 31] was at least 77.7 µM, the Kd [5, 31] was at least 55.4 µM and the Kd [6, 31] was 8.46 µM.
IEYSDFATSA was tested, and the Kd [1, 30] was 0.728 µM, the Kd [2, 30] was 16.7 µM and the Kd [3, 30] was 0.147 µM. The Kd [4, 30] was 0.154 µM, the Kd [5, 30] was 0.135 µM and the Kd [6, 30] was 0.658 µM.
Sequence YEAMYTPHT has a Kd [1, 30] of at least 21.8 µM, a Kd [2, 30] of 14.4 µM and a Kd [3, 30] of 0.242 µM. The Kd [4, 30] was 0.149 µM, the Kd [5, 30] was 2.8 µM and the Kd [6, 30] was 13 µM.
SDHLISEIL was tested, and the Kd [1, 32] was 9.12 µM, the Kd [2, 32] was 8.52 µM and the Kd [3, 32] was 0.0831 µM. For the same sequence, the Kd [4, 32] was 1.66 µM, the Kd [5, 32] was at least 77.5 µM and the Kd [6, 32] was at least 78.1 µM.
Sequence TLATISTSP has an IC50 [8, 27] of at least 88.9 µM and an IC50 [9, 27] of 29.7 µM.
